Reference: US20120020948A1, “DAG-TYPE AND INDIRECT PROTEIN KINASE C ACTIVATORS AND ANTICOAGULANT FOR THE TREATMENT OF STROKE” (priority 2010, published 2012)

Tested on: rats with focal ischemia (MCAO)
Assay: Mortality after focal ischemia (MCAO) stroke
Assay type: in vivo
Details: rTPA i.v. 6 hours after the stroke, with or without bryostatin-1 2 hours later
Description: A transient animal model of focal ischemia was used for these experiments. The middle cerebral artery (MCA) was surgically dissected and occluded in anesthetized rats by ligature, followed by reperfusion after a defined period (about 2 hours). Animal models transient ischemia via occlusion of the MCA (MCAO) are described in, e.g., Sicard and Fisher, Exp. & Transl. Stroke Med. (2009), vol. 1, pp. 1-7.
In contrast, if rTPA was given 6 hours after the stroke, in the absence of subsequent treatment with bryostatin, 44% mortality was observed (N=6 animals).

B1: rTPA: recombinant tissue plasminogen activator, thrombolytic serine protease approved for ischemic stroke (protein, UniProt P00750 36-562, looked up)
Tissue-type plasminogen …: SYQVICRDEKTQMIYQQHQSWLRPVLRSNRVEYCWCNSGRAQCHSVPVKSCSEPRCFNGGTCQQALYFSDFVCQCPEGFAGKCCEIDTRATCYEDQGISYRGTWSTAESGAECTNWNSSALAQKPYSGRRPDAIRLGLGNHNYCRNPDRDSKPWCYVFKAGKYSSEFCSTPACSEGNSDCYFGNGSAYRGTHSLTESGASCLPWNSMILIGKVYTAQNPSAQALGLGKHNYCRNPDGDAKPWCHVLKNRRLTWEYCDVPSCSTCGLRQYSQPQFRIKGGLFADIASHPWQAAIFAKHRRSPGERFLCGGILISSCWILSAAHCFQERFPPHHLTVILGRTYRVVPGEEEQKFEVEKYIVHKEFDDDTYDNDIALLQLKSDSSRCAQESSVVRTVCLPPADLQLPDWTECELSGYGKHEALSPFYSERLKEAHVRLYPSSRCTSQHLLNRTVTDNMLCAGDTRSGGPQANLHDACQGDSGGPLVCLNDGRMTLVGIISWGLGCGQKDVPGVYTKVTNYLDWIRDNMRP
mortality 24 hours later: 44%
